Positions count from the first letter of the chain named.
T1: Irc6p (Saccharomyces cerevisiae, UniProt P43615)
T1 sequence (P43615 1-237): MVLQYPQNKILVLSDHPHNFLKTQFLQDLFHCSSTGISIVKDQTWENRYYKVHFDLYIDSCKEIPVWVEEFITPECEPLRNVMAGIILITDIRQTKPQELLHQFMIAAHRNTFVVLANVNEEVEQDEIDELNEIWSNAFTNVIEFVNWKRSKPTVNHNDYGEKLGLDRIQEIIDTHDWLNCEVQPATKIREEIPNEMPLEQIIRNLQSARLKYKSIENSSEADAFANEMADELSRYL

T2: FLAG-tagged Irc6p (recombinant, purified) (yeast (S. cerevisiae), UniProt P43615 1-237)
T2 sequence (looked up): T1 sequence (P43615 1-237)

T3: FLAG-Irc6p-K22A (yeast (S. cerevisiae), UniProt P43615 1-237, K22A)
T3 sequence (looked up): T1 sequence (P43615 1-237) with K22A

B1: GST-Ypt31p (natural protein, yeast (S. cerevisiae), UniProt P38555 1-223, looked up)
chain: MSSEDYGYDYDLLFKIVLIGDSGVGKSNLLSRFTKNEFNMDSKSTIGVEFATRTLEIDGKRIKAQIWDTAGQERYRAITSAYYRGAVGALIVYDISKSSSYENCNHWLSELRENADDNVAVGLIGNKSDLAHLRAVPTEESKTFAQENQLLFTETSALNSENVDKAFEELINTIYQKVSKHQMDLGDSSANGNANGASAPNGPTISLTPTPNENKKANGNNCC
B2: FLAG-Irc6pΔC (Irc6p N-terminal region) (domain or fragment, yeast (S. cerevisiae), UniProt P43615 1-179, looked up)
chain: MVLQYPQNKILVLSDHPHNFLKTQFLQDLFHCSSTGISIVKDQTWENRYYKVHFDLYIDSCKEIPVWVEEFITPECEPLRNVMAGIILITDIRQTKPQELLHQFMIAAHRNTFVVLANVNEEVEQDEIDELNEIWSNAFTNVIEFVNWKRSKPTVNHNDYGEKLGLDRIQEIIDTHDWL
B3: FLAG-Irc6pCT (Irc6p C-terminal region) (domain or fragment, yeast (S. cerevisiae), UniProt P43615 179-237, looked up)
chain: LNCEVQPATKIREEIPNEMPLEQIIRNLQSARLKYKSIENSSEADAFANEMADELSRYL

Legend:
[1] = molecular target: T1, Irc6p; assay: limited proteolysis; type: binding; settings: pH 8, 10 mM CaCl2, 24°C; indirect evidence
[2] = molecular target: T2, FLAG-tagged Irc6p (recombinant, …); assay: pull-down
[3] = molecular target: T3, FLAG-Irc6p-K22A; assay: pull-down
[4] = molecular target: B1; assay: pull-down

Molecule: Nc1nc2c(ncn2[C@@H]2O[C@H](COP(=O)(O)OP(=O)(O)NP(=O)(O)O)[C@@H](O)[C@H]2O)c(=O)[nH]1 [GMPPNP]
limited proteolysis (chymotrypsin), protection [1]: by limited proteolysis was slowed in the presence of GMPPNP (Figure S2B)

Molecule: B1
binding result [2]: binds | binding result [3]: binds

Molecule: B2
binding result [4]: binds

Molecule: B3
binding result [4]: binds

Reference: article PMC3496615 (Molecular Biology of the Cell, 2012)
